Experimental data reported in paper PMC9352680, “A comprehensive thermodynamic model for RNA binding by the Saccharomyces cerevisiae Pumilio protein PUF4”.

T1: PUF4 RNA-binding domain (Saccharomyces cerevisiae, UniProt P25339 537-888)
T1 sequence: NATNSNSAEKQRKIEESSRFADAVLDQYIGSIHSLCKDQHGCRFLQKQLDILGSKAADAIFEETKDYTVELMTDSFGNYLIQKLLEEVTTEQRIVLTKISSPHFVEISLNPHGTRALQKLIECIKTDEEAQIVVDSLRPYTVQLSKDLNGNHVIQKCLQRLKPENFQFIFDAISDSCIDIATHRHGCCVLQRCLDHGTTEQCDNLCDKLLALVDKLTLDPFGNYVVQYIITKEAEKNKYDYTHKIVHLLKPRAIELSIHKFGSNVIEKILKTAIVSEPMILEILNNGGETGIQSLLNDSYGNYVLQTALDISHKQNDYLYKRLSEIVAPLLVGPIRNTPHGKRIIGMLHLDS


Target: T1, PUF4 RNA-binding domain
Experiment: Mg; RNA-MaP; 20 mM Na-HEPES pH 7.4, 30 mM KOAc, 0.75 mM MgCl2, 0.1% Tween-20, 5% glycerol, 0.1 mg/mL BSA, 2 mM DTT; 25 C; 0.0125-409.6 nM protein
Settings: tags: N-His6-TEV cleaved; C-SNAP kept, Cy3B-labelled; label: tethered on chip by stalled RNA polymerase

Row | Binder | Kd [nM]
1 | ACAAACGCACACUAUAGGACAAAC (ssRNA) [Id_ii_S3_P3E.4_K3.3_C3.2_[C-2G]_[T-1C]_H3.3_A3.1_F3.1_T3.2_[T9G]_[A10G]] | > 2300
2 | ACAAACGCACACUAUACAACAAAC (ssRNA) [Id_ii_S3_P3E.4_K3.3_C3.2_[C-2G]_[T-1C]_H3.3_A3.1_F3.1_T3.2_[T9C]] | > 2300
3 | ACAAACGCACACUAUAAGACAAAC (ssRNA) [Id_ii_S3_P3E.4_K3.3_C3.2_[C-2G]_[T-1C]_H3.3_A3.1_F3.1_T3.2_[T9A]_[A10G]] | > 2300
4 | ACAAACGCACACUAUAAUACAAAC (ssRNA) [Id_ii_S3_P3E.4_K3.3_C3.2_[C-2G]_[T-1C]_H3.3_A3.1_F3.1_T3.2_[T9A]_[A10T]] | > 2300
5 | ACAAACGAACACUAUAGCACAAAC (ssRNA) [Id_ii_S3_P3E.4_K3.3_C3.2_[C-2G]_[T-1A]_H3.3_A3.1_F3.1_T3.2_[T9G]_[A10C]] | > 2300
6 | ACAAACGAACACUAUACCACAAAC (ssRNA) [Id_ii_S3_P3E.4_K3.3_C3.2_[C-2G]_[T-1A]_H3.3_A3.1_F3.1_T3.2_[T9C]_[A10C]] | > 2300
7 | ACAAACGAACACUAUACAACAAAC (ssRNA) [Id_ii_S3_P3E.4_K3.3_C3.2_[C-2G]_[T-1A]_H3.3_A3.1_F3.1_T3.2_[T9C]] | > 2300
8 | UCUCUUUGUACUAUUCUCUCUU (ssRNA) [Ib_S1_P5E.1_K5.1_C5.1_H5.1_A5.1_[T5C]_F5.1_[A10C]_T5.1] | 12.5
9 | ACAAACGAACACUAUAACACAAAC (ssRNA) [Id_ii_S3_P3E.4_K3.3_C3.2_[C-2G]_[T-1A]_H3.3_A3.1_F3.1_T3.2_[T9A]_[A10C]] | > 2300
10 | ACAAACGAACACUAUAAUACAAAC (ssRNA) [Id_ii_S3_P3E.4_K3.3_C3.2_[C-2G]_[T-1A]_H3.3_A3.1_F3.1_T3.2_[T9A]_[A10T]] | > 2300
11 | ACAAACGAACACUAUAUCACAAAC (ssRNA) [Id_ii_S3_P3E.4_K3.3_C3.2_[C-2G]_[T-1A]_H3.3_A3.1_F3.1_T3.2_[A10C]] | > 2300
12 | ACAAACGUACACUAUACCACAAAC (ssRNA) [Id_ii_S3_P3E.4_K3.3_C3.2_[C-2G]_H3.3_A3.1_F3.1_T3.2_[T9C]_[A10C]] | 105
13 | ACAAACGUACACUAUAACACAAAC (ssRNA) [Id_ii_S3_P3E.4_K3.3_C3.2_[C-2G]_H3.3_A3.1_F3.1_T3.2_[T9A]_[A10C]] | 100
14 | ACAAACGUACACUAUAUCACAAAC (ssRNA) [Id_ii_S3_P3E.4_K3.3_C3.2_[C-2G]_H3.3_A3.1_F3.1_T3.2_[A10C]] | 51
15 | ACAAACUGACACUAUAGAACAAAC (ssRNA) [Id_ii_S3_P3E.4_K3.3_C3.2_[C-2T]_[T-1G]_H3.3_A3.1_F3.1_T3.2_[T9G]] | 1880
16 | ACAAACUGACACUAUACCACAAAC (ssRNA) [Id_ii_S3_P3E.4_K3.3_C3.2_[C-2T]_[T-1G]_H3.3_A3.1_F3.1_T3.2_[T9C]_[A10C]] | > 2300
17 | ACAAACUGACACUAUACUACAAAC (ssRNA) [Id_ii_S3_P3E.4_K3.3_C3.2_[C-2T]_[T-1G]_H3.3_A3.1_F3.1_T3.2_[T9C]_[A10T]] | > 2300
18 | ACAAACUGACACUAUAAGACAAAC (ssRNA) [Id_ii_S3_P3E.4_K3.3_C3.2_[C-2T]_[T-1G]_H3.3_A3.1_F3.1_T3.2_[T9A]_[A10G]] | > 2300
19 | UCUCUUUGUAAUAUUCUCUCUU (ssRNA) [Ib_S1_P5E.1_K5.1_C5.1_H5.1_A5.1_[T5A]_F5.1_[A10C]_T5.1] | 21.6
20 | ACAAACUGACACUAUAUUACAAAC (ssRNA) [Id_ii_S3_P3E.4_K3.3_C3.2_[C-2T]_[T-1G]_H3.3_A3.1_F3.1_T3.2_[A10T]] | 1340
21 | ACAAACUCACACUAUAGCACAAAC (ssRNA) [Id_ii_S3_P3E.4_K3.3_C3.2_[C-2T]_[T-1C]_H3.3_A3.1_F3.1_T3.2_[T9G]_[A10C]] | > 2300
22 | ACAAACUCACACUAUAGAACAAAC (ssRNA) [Id_ii_S3_P3E.4_K3.3_C3.2_[C-2T]_[T-1C]_H3.3_A3.1_F3.1_T3.2_[T9G]] | > 2300
23 | ACAAACUCACACUAUAUUACAAAC (ssRNA) [Id_ii_S3_P3E.4_K3.3_C3.2_[C-2T]_[T-1C]_H3.3_A3.1_F3.1_T3.2_[A10T]] | 2080
24 | ACAAACUAACACUAUAUUACAAAC (ssRNA) [Id_ii_S3_P3E.4_K3.3_C3.2_[C-2T]_[T-1A]_H3.3_A3.1_F3.1_T3.2_[A10T]] | 2240
25 | ACAAACUAACACUAUAUAACAAAC (ssRNA) [Id_ii_S3_P3E.4_K3.3_C3.2_[C-2T]_[T-1A]_H3.3_A3.1_F3.1_T3.2] | > 2300

Row | Binder | Kd [nM]
26 | ACAAACUUACACUAUAGCACAAAC (ssRNA) [Id_ii_S3_P3E.4_K3.3_C3.2_[C-2T]_H3.3_A3.1_F3.1_T3.2_[T9G]_[A10C]] | 2170
27 | ACAAACUUACACUAUAAAACAAAC (ssRNA) [Id_ii_S3_P3E.4_K3.3_C3.2_[C-2T]_H3.3_A3.1_F3.1_T3.2_[T9A]] | > 2300
28 | ACAAACUUACACUAUAUUACAAAC (ssRNA) [Id_ii_S3_P3E.4_K3.3_C3.2_[C-2T]_H3.3_A3.1_F3.1_T3.2_[A10T]] | 959
29 | ACAAACUUACACUAUAUAACAAAC (ssRNA) [Id_ii_S3_P3E.4_K3.3_C3.2_[C-2T]_H3.3_A3.1_F3.1_T3.2] | 968
30 | UCUCUUUGUAGUAUUUUCUCUU (ssRNA) [Ib_S1_P5E.1_K5.1_C5.1_H5.1_A5.1_[T5G]_F5.1_[A10T]_T5.1] | 101
31 | ACAAACAGACACUAUACAACAAAC (ssRNA) [Id_ii_S3_P3E.4_K3.3_C3.2_[C-2A]_[T-1G]_H3.3_A3.1_F3.1_T3.2_[T9C]] | > 2300
32 | ACAAACAGACACUAUAUUACAAAC (ssRNA) [Id_ii_S3_P3E.4_K3.3_C3.2_[C-2A]_[T-1G]_H3.3_A3.1_F3.1_T3.2_[A10T]] | 2200
33 | ACAAACACACACUAUAGCACAAAC (ssRNA) [Id_ii_S3_P3E.4_K3.3_C3.2_[C-2A]_[T-1C]_H3.3_A3.1_F3.1_T3.2_[T9G]_[A10C]] | > 2300
34 | ACAAACACACACUAUAUCACAAAC (ssRNA) [Id_ii_S3_P3E.4_K3.3_C3.2_[C-2A]_[T-1C]_H3.3_A3.1_F3.1_T3.2_[A10C]] | > 2300
35 | ACAAACACACACUAUAUUACAAAC (ssRNA) [Id_ii_S3_P3E.4_K3.3_C3.2_[C-2A]_[T-1C]_H3.3_A3.1_F3.1_T3.2_[A10T]] | 1650
36 | ACAAACAAACACUAUAGGACAAAC (ssRNA) [Id_ii_S3_P3E.4_K3.3_C3.2_[C-2A]_[T-1A]_H3.3_A3.1_F3.1_T3.2_[T9G]_[A10G]] | > 2300
37 | ACAAACAAACACUAUACAACAAAC (ssRNA) [Id_ii_S3_P3E.4_K3.3_C3.2_[C-2A]_[T-1A]_H3.3_A3.1_F3.1_T3.2_[T9C]] | > 2300
38 | ACAAACAUACACUAUAGAACAAAC (ssRNA) [Id_ii_S3_P3E.4_K3.3_C3.2_[C-2A]_H3.3_A3.1_F3.1_T3.2_[T9G]] | 1310
39 | ACAAACAUACACUAUACCACAAAC (ssRNA) [Id_ii_S3_P3E.4_K3.3_C3.2_[C-2A]_H3.3_A3.1_F3.1_T3.2_[T9C]_[A10C]] | 1760
40 | ACAAACAUACACUAUACUACAAAC (ssRNA) [Id_ii_S3_P3E.4_K3.3_C3.2_[C-2A]_H3.3_A3.1_F3.1_T3.2_[T9C]_[A10T]] | 1070
41 | UCUCUUUGUACUAUUUUCUCUU (ssRNA) [Ib_S1_P5E.1_K5.1_C5.1_H5.1_A5.1_[T5C]_F5.1_[A10T]_T5.1] | 10.2
42 | ACAAACAUACACUAUAACACAAAC (ssRNA) [Id_ii_S3_P3E.4_K3.3_C3.2_[C-2A]_H3.3_A3.1_F3.1_T3.2_[T9A]_[A10C]] | 1680
43 | ACAAACAUACACUAUAUCACAAAC (ssRNA) [Id_ii_S3_P3E.4_K3.3_C3.2_[C-2A]_H3.3_A3.1_F3.1_T3.2_[A10C]] | 1230
44 | ACAAACAUACACUAUAUUACAAAC (ssRNA) [Id_ii_S3_P3E.4_K3.3_C3.2_[C-2A]_H3.3_A3.1_F3.1_T3.2_[A10T]] | 556
45 | ACAAACCGACACUAUACUACAAAC (ssRNA) [Id_ii_S3_P3E.4_K3.3_C3.2_[T-1G]_H3.3_A3.1_F3.1_T3.2_[T9C]_[A10T]] | > 2300
46 | ACAAACCGACACUAUACAACAAAC (ssRNA) [Id_ii_S3_P3E.4_K3.3_C3.2_[T-1G]_H3.3_A3.1_F3.1_T3.2_[T9C]] | > 2300
47 | ACAAACCGACACUAUAAAACAAAC (ssRNA) [Id_ii_S3_P3E.4_K3.3_C3.2_[T-1G]_H3.3_A3.1_F3.1_T3.2_[T9A]] | > 2300
48 | ACAAACCGACACUAUAUAACAAAC (ssRNA) [Id_ii_S3_P3E.4_K3.3_C3.2_[T-1G]_H3.3_A3.1_F3.1_T3.2] | > 2300
49 | ACAAACCCACACUAUAGCACAAAC (ssRNA) [Id_ii_S3_P3E.4_K3.3_C3.2_[T-1C]_H3.3_A3.1_F3.1_T3.2_[T9G]_[A10C]] | > 2300
